Series [1] deals with hRPA70A (DNA-binding domain A of RPA70) (human, UniProt P27694 181-290). In words: NMR chemical shift perturbation.
Series [2] deals with scRPA70A (DNA-binding domain A of RPA70) (Saccharomyces cerevisiae, UniProt P22336 181-294). The experiment in a line: NMR chemical shift perturbation.
Sequence of scRPA70A (DNA-binding domain A of RPA70) (P22336 181-294): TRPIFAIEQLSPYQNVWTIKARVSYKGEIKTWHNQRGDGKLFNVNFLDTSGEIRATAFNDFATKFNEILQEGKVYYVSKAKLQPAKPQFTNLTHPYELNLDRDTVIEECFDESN

Sequence of hRPA70A (DNA-binding domain A of RPA70) (P27694 181-290): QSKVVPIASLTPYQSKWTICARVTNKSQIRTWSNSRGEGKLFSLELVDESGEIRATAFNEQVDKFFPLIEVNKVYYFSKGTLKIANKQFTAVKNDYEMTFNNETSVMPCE

For the molecule GCGATTGCG (ssDNA) [TT-10], the binding result in series [1] and in series [2] was “binds” throughout.

For the origin of these results see PMC1180672.
